Experimental data taken from patent US20220251152A1, “COMPOSITIONS AND METHODS FOR SELECTIVE PROTEIN DEGRADATION” (Novartis AG, priority 2019, published 2022).
“Also recorded” adds a separate entry of the source.

Experiments:
[1] = tested on: NanoLuciferase fused to various IKZF3-based degradation tags; test: Western blot of variant IKZF3-based degradation tags fused to NanoLuciferase in HEK293T cells; assay type: cell-based, human; conditions: tag fused to N-terminus of NanoLuciferase
Experimental: Additionally, the IKZF3-based degradation tags were modified using the following strategies:
(1) deleting N-terminal and/or C-terminal amino acid residues;
Protein degradation was measured using western blot as described in Example 2.

[2] = tested on: CAR19 fused to HilD tag and/or FurON; test: Flow cytometry of surface CAR expression on JNL cells, 10 μM lenalidomide and/or bazedoxifene 24 hours; assay type: cell-based, human; conditions: surface CAR on transduced JNL cells; for % reduction in CAR expression / Effect of lenalidomide: 10 μM lenalidomide, 24 hours; for CAR Expression: flow cytometry, FurON constructs only in presence of bazedoxifene; for Effect of bazedoxifene: with/without bazedoxifene
From the text: Next, the surface expression of CAR19 on stably transduced JNL cells was examined by flow cytometry. […] On Day 2, cells were harvested, stained using biotinylated-protein L (Genscript, M00097) followed by PE conjugated streptavidin (Jackson Lab, 016-110-084), and subjected to flow cytometry analysis using Fortessa instrument.

Row | Molecule | ability of the tag to facilitate lenalidomide-dependent degradation of NanoLuciferase [1] | ability of the tag to facilitate lenalidomide-dependent degradation of NanoLuciferase ([1]; listed as SEQ ID NO: 84) | ability of the tag to facilitate lenalidomide-dependent degradation of NanoLuciferase ([1]; listed as SEQ ID NO: 100) | % reduction in CAR expression [2] | Effect of lenalidomide [2] | CAR Expression [2] | Effect of bazedoxifene [2]
1 | IKZF3 136-170 MALEK: IKZF3 136-170 with helix MALEKMALEKMALE, SEQ ID NO: 86 | retained the ability to facilitate lenalidomide-dependent degradation; also recorded: able to mediate lenalidomide-dependent degradation; also recorded: facilitated lenalidomide-induced degradation |  |  |  |  |  | 
2 | IKZF3 136-180 MALEK: residues 236-249 replaced with helix MALEKMALEKMALE, SEQ ID NO: 85 | retained the ability to facilitate lenalidomide-dependent degradation; also recorded: facilitated lenalidomide-induced degradation |  |  |  |  |  | 
3 | IKZF3 136-180 and 236-249 K245R: tag with lysine at position 245 mutated to arginine, SEQ ID NO: 84 (HKRSHTGERPFQCNQCGASFTQKGNLLRHIKLHTGEKPFKCHLCNTASAEARHIRAEMG; source: /note="Description of Unknown: IKZF3 sequence") | facilitated lenalidomide-induced degradation | did not significantly impact the ability of the tag to mediate degradation |  |  |  |  | 
4 | IKZF3 136-180 and 236-249 K245S: tag with lysine at position 245 mutated to serine, SEQ ID NO: 100 (HKRSHTGERPFQCNQCGASFTQKGNLLRHIKLHTGEKPFKCHLCNTASAEARHISAEMG; source: /note="Description of Unknown: IKZF3 sequence") | facilitated lenalidomide-induced degradation |  | did not significantly impact the ability of the tag to mediate degradation |  |  |  | 
5 | IKZF3 140-170 MALEK: tag comprising the amino acid sequence of SEQ ID NO: 87 | did not mediate lenalidomide-induced degradation; also recorded: did not mediate lenalidomide induced degradation |  |  |  |  |  | 
6 | 6761 (protein) MALPVTALLLPLALLLHAARPEIVMTQSPATLSLSPGERATLSCRASQDISKYLNWYQQKPGQAPRLLIYHTSRLHSGIPARFSGSGSGTDYTLTISSLQPEDFAVYFCQQGNTLPYTFGQGTKLEIKGGGGSGGGGSGGGGSQVQLQESGPGLVKPSETLSLTCTVSGVSLPDYGVSWIRQPPGKGLEWIGVIWGSETTYYQSSLKSRVTISKDNSKNQVSLKLSSVTAADTAVYYCAKHYYYGGSYAMDYWGQGTLVTVSSTTTPAPRPPTPAPTIASQPLSLRPEACRPAAGGAVHTRGLDFACDIYIWAPLAGTCGVLLLSLVITLYCKRGRKKLLYIFKQPFMRPVQTTQEEDGCSCRFPEEEEGGCELRVKFSRSADAPAYQQGQNQLYNELNLGRREEYDVLDKRRGRDPEMGGKPRRKNPQEGLYNELQKDKMAEAYSEIGMKGERRRGKGHDGLYQGLSTATKDTYDALHMQALPPRKGGGSKGGGTKGGGSKMHKRSHTGERPFQCNQCGASFTQKGNLLRHIKLHTGEKPFKCHLCNTASAEARHIKAEMGGKPIPNPLLGLDST |  |  |  | 77% | Yes | Yes | 
7 | 765 (protein) MALPVTALLLPLALLLHAARPRSSLALSLTADQMVSALLDAEPPILYSEYDPTRPFSEASMMGLLTNLADRELVHMINWAKRVPGFVDLALHDQVHLLECAWMEILMIGLVWRSMEHPGKLLFAPNLLLDRNQGKCVEGGVEIFDMLLATSSRFRMMNLQGEEFVCLKSIILLNSGVYTFLSSTLKSLEEKDHIHRVLDKITDTLIHLMAKAGLTLQQQHQRLAQLLLILSHIRHMSSKRMEHLYSMKCKNVVPLSDLLLEMLDAHRLGTGAEDPRPSRKRRSLGDVGEIVMTQSPATLSLSPGERATLSCRASQDISKYLNWYQQKPGQAPRLLIYHTSRLHSGIPARFSGSGSGTDYTLTISSLQPEDFAVYFCQQGNTLPYTFGQGTKLEIKGGGGSGGGGSGGGGSQVQLQESGPGLVKPSETLSLTCTVSGVSLPDYGVSWIRQPPGKGLEWIGVIWGSETTYYQSSLKSRVTISKDNSKNQVSLKLSSVTAADTAVYYCAKHYYYGGSYAMDYWGQGTLVTVSSTTTPAPRPPTPAPTIASQPLSLRPEACRPAAGGAVHTRGLDFACDIYIWAPLAGTCGVLLLSLVITLYCKRGRKKLLYIFKQPFMRPVQTTQEEDGCSCRFPEEEEGGCELRVKFSRSADAPAYQQGQNQLYNELNLGRREEYDVLDKRRGRDPEMGGKPRRKNPQEGLYNELQKDKMAEAYSEIGMKGERRRGKGHDGLYQGLSTATKDTYDALHMQALPPR |  |  |  |  | No | Yes | Yes
8 | 766 (protein) MALPVTALLLPLALLLHAARPRSSLALSLTADQMVSALLDAEPPILYSEYDPTRPFSEASMMGLLTNLADRELVHMINWAKRVPGFVDLALHDQVHLLECAWMEILMIGLVWRSMEHPGKLLFAPNLLLDRNQGKCVEGGVEIFDMLLATSSRFRMMNLQGEEFVCLKSIILLNSGVYTFLSSTLKSLEEKDHIHRVLDKITDTLIHLMAKAGLTLQQQHQRLAQLLLILSHIRHMSSKRMEHLYSMKCKNVVPLSDLLLEMLDAHRLGTGAEDPRPSRKRRSLGDVGEIVMTQSPATLSLSPGERATLSCRASQDISKYLNWYQQKPGQAPRLLIYHTSRLHSGIPARFSGSGSGTDYTLTISSLQPEDFAVYFCQQGNTLPYTFGQGTKLEIKGGGGSGGGGSGGGGSQVQLQESGPGLVKPSETLSLTCTVSGVSLPDYGVSWIRQPPGKGLEWIGVIWGSETTYYQSSLKSRVTISKDNSKNQVSLKLSSVTAADTAVYYCAKHYYYGGSYAMDYWGQGTLVTVSSTTTPAPRPPTPAPTIASQPLSLRPEACRPAAGGAVHTRGLDFACDIYIWAPLAGTCGVLLLSLVITLYCKRGRKKLLYIFKQPFMRPVQTTQEEDGCSCRFPEEEEGGCELRVKFSRSADAPAYQQGQNQLYNELNLGRREEYDVLDKRRGRDPEMGGKPRRKNPQEGLYNELQKDKMAEAYSEIGMKGERRRGKGHDGLYQGLSTATKDTYDALHMQALPPRGGGGSGGGGTGGGGSGMHKRSHTGERPFQCNQCGASFTQKGNLLRHIKLHTGEKPFKCHLCNTASAEARHIKAEMGGKPIPNPLLGLDST |  |  |  | 92% | Yes | Yes | Yes
9 | 767 (protein) MALPVTALLLPLALLLHAARPRSSLALSLTADQMVSALLDAEPPILYSEYDPTRPFSEASMMGLLTNLADRELVHMINWAKRVPGFVDLALHDQVHLLECAWMEILMIGLVWRSMEHPGKLLFAPNLLLDRNQGKCVEGGVEIFDMLLATSSRFRMMNLQGEEFVCLKSIILLNSGVYTFLSSTLKSLEEKDHIHRVLDKITDTLIHLMAKAGLTLQQQHQRLAQLLLILSHIRHMSSKRMEHLYSMKCKNVVPLSDLLLEMLDAHRLGTGAEDPRPSRKRRSLGDVGEIVMTQSPATLSLSPGERATLSCRASQDISKYLNWYQQKPGQAPRLLIYHTSRLHSGIPARFSGSGSGTDYTLTISSLQPEDFAVYFCQQGNTLPYTFGQGTKLEIKGGGGSGGGGSGGGGSQVQLQESGPGLVKPSETLSLTCTVSGVSLPDYGVSWIRQPPGKGLEWIGVIWGSETTYYQSSLKSRVTISKDNSKNQVSLKLSSVTAADTAVYYCAKHYYYGGSYAMDYWGQGTLVTVSSTTTPAPRPPTPAPTIASQPLSLRPEACRPAAGGAVHTRGLDFACDIYIWAPLAGTCGVLLLSLVITLYCKRGRKKLLYIFKQPFMRPVQTTQEEDGCSCRFPEEEEGGCELRVKFSRSADAPAYQQGQNQLYNELNLGRREEYDVLDKRRGRDPEMGGKPRRKNPQEGLYNELQKDKMAEAYSEIGMKGERRRGKGHDGLYQGLSTATKDTYDALHMQALPPRGGGGSGGGGTGGGGSGMHKRSHTGERPFQCNQCGASFTQKGNLLRHIKLHTGEKPFKCHLCNTASAEARHIKAEMG |  |  |  | 95% | Yes | Yes | Yes
10 | 768 (protein) MALPVTALLLPLALLLHAARPEIVMTQSPATLSLSPGERATLSCRASQDISKYLNWYQQKPGQAPRLLIYHTSRLHSGIPARFSGSGSGTDYTLTISSLQPEDFAVYFCQQGNTLPYTFGQGTKLEIKGGGGSGGGGSGGGGSQVQLQESGPGLVKPSETLSLTCTVSGVSLPDYGVSWIRQPPGKGLEWIGVIWGSETTYYQSSLKSRVTISKDNSKNQVSLKLSSVTAADTAVYYCAKHYYYGGSYAMDYWGQGTLVTVSSTTTPAPRPPTPAPTIASQPLSLRPEACRPAAGGAVHTRGLDFACDIYIWAPLAGTCGVLLLSLVITLYCKRGRKKLLYIFKQPFMRPVQTTQEEDGCSCRFPEEEEGGCELRVKFSRSADAPAYQQGQNQLYNELNLGRREEYDVLDKRRGRDPEMGGKPRRKNPQEGLYNELQKDKMAEAYSEIGMKGERRRGKGHDGLYQGLSTATKDTYDALHMQALPPRGGGGSGGGGTGGGGSGMHKRSHTGERPFQCNQCGASFTQKGNLLRHIKLHTGEKPFKCHLCNTASAEARHIKAEMGGKPIPNPLLGLDST |  |  |  | 88% | Yes | Yes | 
11 | 769 (protein) MALPVTALLLPLALLLHAARPEIVMTQSPATLSLSPGERATLSCRASQDISKYLNWYQQKPGQAPRLLIYHTSRLHSGIPARFSGSGSGTDYTLTISSLQPEDFAVYFCQQGNTLPYTFGQGTKLEIKGGGGSGGGGSGGGGSQVQLQESGPGLVKPSETLSLTCTVSGVSLPDYGVSWIRQPPGKGLEWIGVIWGSETTYYQSSLKSRVTISKDNSKNQVSLKLSSVTAADTAVYYCAKHYYYGGSYAMDYWGQGTLVTVSSTTTPAPRPPTPAPTIASQPLSLRPEACRPAAGGAVHTRGLDFACDIYIWAPLAGTCGVLLLSLVITLYCKRGRKKLLYIFKQPFMRPVQTTQEEDGCSCRFPEEEEGGCELRVKFSRSADAPAYQQGQNQLYNELNLGRREEYDVLDKRRGRDPEMGGKPRRKNPQEGLYNELQKDKMAEAYSEIGMKGERRRGKGHDGLYQGLSTATKDTYDALHMQALPPRGGGGSGGGGTGGGGSGMHKRSHTGERPFQCNQCGASFTQKGNLLRHIKLHTGEKPFKCHLCNTASAEARHIKAEMG |  |  |  | 90% | Yes | Yes | 
